No end group written: not given here.
Key:
Experiment in all cases: Kinase Profiling Assay
Type in all cases: biochemical
Details in all cases: peptide 100 μM
[1] = molecular target: ALK(h) (Homo sapiens, UniProt Q9UM73)
Summary of the method: (§1)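 Scintillation counting quantifies radiolabeled, positively charged substrate retained on a negatively charged filter after kinase reaction with labeled ATP; inhibitor peptide present.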

[2] = molecular target: Abl(T315I)(h) (Homo sapiens, UniProt P00519, T315I)
Summary of the method: as §1

[3] = molecular target: Abl(h) (Homo sapiens, UniProt P00519)
Summary of the method: as §1

[4] = molecular target: CDK9/cyclin T1(h) (Homo sapiens, UniProt P50750)
Chain of CDK9/cyclin T1(h) (P50750 whole entry): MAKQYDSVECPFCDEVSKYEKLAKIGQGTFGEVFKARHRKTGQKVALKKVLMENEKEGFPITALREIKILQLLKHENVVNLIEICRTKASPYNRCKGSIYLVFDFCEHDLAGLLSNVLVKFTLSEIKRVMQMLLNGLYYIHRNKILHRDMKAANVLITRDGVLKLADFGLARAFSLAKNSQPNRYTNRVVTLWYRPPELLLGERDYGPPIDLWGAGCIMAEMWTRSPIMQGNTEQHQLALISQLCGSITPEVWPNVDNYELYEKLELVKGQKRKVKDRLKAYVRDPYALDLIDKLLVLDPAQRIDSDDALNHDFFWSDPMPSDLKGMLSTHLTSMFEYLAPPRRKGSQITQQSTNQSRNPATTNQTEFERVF
Chain of CDK9/cyclin T1(h) (O60563 whole entry partner): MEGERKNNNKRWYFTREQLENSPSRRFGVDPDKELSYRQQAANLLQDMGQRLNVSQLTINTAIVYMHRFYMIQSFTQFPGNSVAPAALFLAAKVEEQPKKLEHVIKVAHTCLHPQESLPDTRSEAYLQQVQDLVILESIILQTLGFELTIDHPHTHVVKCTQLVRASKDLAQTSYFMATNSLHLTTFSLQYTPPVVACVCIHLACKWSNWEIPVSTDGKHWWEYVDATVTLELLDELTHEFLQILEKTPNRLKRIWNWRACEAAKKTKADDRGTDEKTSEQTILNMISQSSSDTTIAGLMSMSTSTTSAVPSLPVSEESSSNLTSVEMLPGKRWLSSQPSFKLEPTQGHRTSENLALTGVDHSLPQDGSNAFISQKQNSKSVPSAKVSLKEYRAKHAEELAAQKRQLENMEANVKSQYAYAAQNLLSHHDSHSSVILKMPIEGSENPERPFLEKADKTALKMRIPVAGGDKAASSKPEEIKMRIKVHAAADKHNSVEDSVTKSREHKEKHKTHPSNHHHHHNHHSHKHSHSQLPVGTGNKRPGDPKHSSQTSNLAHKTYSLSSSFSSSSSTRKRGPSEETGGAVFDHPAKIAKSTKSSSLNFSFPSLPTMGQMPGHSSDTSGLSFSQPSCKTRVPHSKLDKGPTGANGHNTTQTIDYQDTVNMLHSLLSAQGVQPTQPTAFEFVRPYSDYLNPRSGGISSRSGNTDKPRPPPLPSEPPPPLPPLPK
Summary of the method: as §1

[5] = molecular target: EGFR(L861Q)(h) (Homo sapiens, UniProt P00533, L861Q)
Summary of the method: as §1

[6] = molecular target: Flt3(h) (Homo sapiens, UniProt P36888)
Summary of the method: as §1

[7] = molecular target: T1, MKK6(h) (Homo sapiens, UniProt P52564)
T1 construct: purchased Millipore
T1 sequence (P52564 1-334): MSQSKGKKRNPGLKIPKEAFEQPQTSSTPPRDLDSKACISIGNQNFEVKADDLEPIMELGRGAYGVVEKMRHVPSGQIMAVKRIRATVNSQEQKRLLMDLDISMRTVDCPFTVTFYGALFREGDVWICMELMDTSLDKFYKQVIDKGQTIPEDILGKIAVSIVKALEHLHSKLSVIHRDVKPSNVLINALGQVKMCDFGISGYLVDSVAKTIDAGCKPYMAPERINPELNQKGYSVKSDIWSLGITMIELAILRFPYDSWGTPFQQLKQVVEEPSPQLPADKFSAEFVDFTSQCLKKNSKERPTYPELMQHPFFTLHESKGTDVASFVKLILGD
Summary of the method: as §1

[8] = molecular target: T2, PAK4(h) (Homo sapiens, UniProt O96013)
T2 construct: purchased Millipore
Summary of the method: as §1

[9] = molecular target: PAK5(h) (Homo sapiens, UniProt Q9P286)
Chain of PAK5(h) (Q9P286 whole entry): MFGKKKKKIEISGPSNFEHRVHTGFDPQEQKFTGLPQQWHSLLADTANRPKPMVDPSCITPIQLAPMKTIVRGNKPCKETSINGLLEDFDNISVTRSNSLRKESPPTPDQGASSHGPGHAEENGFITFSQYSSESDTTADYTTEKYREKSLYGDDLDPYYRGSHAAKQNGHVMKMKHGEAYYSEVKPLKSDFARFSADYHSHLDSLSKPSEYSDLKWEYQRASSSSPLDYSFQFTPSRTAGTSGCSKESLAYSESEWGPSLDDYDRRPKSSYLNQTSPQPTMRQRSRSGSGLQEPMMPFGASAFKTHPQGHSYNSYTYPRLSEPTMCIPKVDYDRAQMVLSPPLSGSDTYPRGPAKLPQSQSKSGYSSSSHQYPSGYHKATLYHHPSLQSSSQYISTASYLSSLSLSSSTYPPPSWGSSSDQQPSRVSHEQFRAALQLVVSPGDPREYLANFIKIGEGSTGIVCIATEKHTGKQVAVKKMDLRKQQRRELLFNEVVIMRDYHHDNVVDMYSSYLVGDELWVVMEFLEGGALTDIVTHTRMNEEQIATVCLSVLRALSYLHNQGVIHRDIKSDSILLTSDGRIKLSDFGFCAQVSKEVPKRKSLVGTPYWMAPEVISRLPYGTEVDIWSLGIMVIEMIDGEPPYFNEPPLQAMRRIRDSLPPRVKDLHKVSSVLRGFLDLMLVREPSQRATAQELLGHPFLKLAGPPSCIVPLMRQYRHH
Summary of the method: as §1

[10] = molecular target: PDGFRα(V561D)(h) (Homo sapiens, UniProt P16234, V561D)
Chain of PDGFRα(V561D)(h) (P16234 24-1089 V561D): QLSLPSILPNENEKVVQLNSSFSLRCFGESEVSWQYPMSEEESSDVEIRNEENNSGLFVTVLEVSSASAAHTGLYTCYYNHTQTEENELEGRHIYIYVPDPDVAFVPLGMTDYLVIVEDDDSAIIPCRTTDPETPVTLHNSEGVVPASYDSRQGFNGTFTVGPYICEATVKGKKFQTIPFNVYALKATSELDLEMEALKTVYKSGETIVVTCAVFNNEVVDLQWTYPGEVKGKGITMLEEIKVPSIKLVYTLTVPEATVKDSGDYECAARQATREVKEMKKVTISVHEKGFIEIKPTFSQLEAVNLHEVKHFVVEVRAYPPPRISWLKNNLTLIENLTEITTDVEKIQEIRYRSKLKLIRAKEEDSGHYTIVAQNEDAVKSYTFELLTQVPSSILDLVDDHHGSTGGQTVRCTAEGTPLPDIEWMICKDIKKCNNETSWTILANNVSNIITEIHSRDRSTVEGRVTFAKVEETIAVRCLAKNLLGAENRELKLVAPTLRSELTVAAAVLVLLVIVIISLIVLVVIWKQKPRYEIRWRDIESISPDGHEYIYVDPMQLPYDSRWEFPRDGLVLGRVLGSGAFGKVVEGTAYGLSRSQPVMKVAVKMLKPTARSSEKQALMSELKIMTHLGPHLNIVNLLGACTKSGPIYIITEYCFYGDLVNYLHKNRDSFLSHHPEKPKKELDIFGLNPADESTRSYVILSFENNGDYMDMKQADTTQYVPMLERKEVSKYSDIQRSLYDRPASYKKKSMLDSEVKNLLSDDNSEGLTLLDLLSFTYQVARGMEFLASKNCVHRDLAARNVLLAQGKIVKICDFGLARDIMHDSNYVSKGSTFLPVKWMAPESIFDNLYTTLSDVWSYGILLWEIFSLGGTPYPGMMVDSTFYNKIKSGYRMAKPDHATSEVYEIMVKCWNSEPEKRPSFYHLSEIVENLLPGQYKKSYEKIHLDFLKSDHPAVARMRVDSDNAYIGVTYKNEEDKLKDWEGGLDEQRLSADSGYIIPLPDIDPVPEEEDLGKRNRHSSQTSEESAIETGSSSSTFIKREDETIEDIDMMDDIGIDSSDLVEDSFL
Summary of the method: as §1

[11] = molecular target: T3, PRAK(h) (Homo sapiens, UniProt Q8IW41)
T3 sequence (Q8IW41 1-473): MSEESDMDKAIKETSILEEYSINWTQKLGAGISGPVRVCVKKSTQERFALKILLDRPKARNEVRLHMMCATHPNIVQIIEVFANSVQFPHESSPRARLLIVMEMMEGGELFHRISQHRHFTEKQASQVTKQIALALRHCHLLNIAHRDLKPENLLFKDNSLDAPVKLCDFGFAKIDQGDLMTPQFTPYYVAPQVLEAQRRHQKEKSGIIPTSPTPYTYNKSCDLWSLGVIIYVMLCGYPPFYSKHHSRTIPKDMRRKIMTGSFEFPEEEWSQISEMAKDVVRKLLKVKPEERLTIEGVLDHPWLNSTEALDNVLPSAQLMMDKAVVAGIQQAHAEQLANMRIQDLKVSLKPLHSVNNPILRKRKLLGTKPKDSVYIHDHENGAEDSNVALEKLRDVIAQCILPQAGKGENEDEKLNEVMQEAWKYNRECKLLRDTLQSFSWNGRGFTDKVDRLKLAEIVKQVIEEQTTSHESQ
Summary of the method: as §1

[12] = molecular target: RIPK2(h) (Homo sapiens, UniProt O43353)
Chain of RIPK2(h) (O43353 whole entry): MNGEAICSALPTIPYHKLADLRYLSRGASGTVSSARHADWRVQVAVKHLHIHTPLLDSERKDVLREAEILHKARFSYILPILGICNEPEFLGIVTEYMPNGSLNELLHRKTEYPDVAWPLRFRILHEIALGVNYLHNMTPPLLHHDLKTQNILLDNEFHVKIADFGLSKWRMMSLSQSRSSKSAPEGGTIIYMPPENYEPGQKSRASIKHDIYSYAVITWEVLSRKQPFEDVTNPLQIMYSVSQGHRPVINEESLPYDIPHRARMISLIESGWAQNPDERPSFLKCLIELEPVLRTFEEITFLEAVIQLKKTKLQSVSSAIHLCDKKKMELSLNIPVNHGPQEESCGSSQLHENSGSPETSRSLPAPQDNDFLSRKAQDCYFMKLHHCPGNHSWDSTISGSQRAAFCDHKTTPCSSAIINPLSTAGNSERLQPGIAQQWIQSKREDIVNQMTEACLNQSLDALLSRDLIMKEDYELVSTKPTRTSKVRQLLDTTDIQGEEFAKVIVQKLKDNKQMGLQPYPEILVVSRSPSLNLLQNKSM
Summary of the method: as §1

[13] = molecular target: T4, Txk(h) (Homo sapiens, UniProt P42681)
T4 sequence (P42681 1-527): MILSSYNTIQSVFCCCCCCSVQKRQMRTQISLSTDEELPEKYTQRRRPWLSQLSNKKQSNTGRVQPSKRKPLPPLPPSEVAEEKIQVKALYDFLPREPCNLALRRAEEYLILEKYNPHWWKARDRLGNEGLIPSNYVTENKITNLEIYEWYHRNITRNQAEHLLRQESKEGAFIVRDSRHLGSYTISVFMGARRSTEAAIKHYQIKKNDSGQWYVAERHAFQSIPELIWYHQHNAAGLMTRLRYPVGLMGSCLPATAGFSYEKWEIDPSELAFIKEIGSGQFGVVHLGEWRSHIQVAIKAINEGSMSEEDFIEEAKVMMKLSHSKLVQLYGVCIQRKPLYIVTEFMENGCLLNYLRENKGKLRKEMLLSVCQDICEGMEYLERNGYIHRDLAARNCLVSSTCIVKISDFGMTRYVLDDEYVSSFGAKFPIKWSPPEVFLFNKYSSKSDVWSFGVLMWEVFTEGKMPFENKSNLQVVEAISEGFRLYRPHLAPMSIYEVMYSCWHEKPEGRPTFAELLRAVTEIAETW
Summary of the method: as §1

[14] = molecular target: FGFR3(h) (Homo sapiens, UniProt P22607)
Summary of the method: as §1

[15] = molecular target: T5, Met(Y1248D)(h) (Homo sapiens, UniProt P08581, Y1230D)
T5 construct: purchased Millipore
Summary of the method: as §1

Chain of ALK(h) (Q9UM73 19-1620): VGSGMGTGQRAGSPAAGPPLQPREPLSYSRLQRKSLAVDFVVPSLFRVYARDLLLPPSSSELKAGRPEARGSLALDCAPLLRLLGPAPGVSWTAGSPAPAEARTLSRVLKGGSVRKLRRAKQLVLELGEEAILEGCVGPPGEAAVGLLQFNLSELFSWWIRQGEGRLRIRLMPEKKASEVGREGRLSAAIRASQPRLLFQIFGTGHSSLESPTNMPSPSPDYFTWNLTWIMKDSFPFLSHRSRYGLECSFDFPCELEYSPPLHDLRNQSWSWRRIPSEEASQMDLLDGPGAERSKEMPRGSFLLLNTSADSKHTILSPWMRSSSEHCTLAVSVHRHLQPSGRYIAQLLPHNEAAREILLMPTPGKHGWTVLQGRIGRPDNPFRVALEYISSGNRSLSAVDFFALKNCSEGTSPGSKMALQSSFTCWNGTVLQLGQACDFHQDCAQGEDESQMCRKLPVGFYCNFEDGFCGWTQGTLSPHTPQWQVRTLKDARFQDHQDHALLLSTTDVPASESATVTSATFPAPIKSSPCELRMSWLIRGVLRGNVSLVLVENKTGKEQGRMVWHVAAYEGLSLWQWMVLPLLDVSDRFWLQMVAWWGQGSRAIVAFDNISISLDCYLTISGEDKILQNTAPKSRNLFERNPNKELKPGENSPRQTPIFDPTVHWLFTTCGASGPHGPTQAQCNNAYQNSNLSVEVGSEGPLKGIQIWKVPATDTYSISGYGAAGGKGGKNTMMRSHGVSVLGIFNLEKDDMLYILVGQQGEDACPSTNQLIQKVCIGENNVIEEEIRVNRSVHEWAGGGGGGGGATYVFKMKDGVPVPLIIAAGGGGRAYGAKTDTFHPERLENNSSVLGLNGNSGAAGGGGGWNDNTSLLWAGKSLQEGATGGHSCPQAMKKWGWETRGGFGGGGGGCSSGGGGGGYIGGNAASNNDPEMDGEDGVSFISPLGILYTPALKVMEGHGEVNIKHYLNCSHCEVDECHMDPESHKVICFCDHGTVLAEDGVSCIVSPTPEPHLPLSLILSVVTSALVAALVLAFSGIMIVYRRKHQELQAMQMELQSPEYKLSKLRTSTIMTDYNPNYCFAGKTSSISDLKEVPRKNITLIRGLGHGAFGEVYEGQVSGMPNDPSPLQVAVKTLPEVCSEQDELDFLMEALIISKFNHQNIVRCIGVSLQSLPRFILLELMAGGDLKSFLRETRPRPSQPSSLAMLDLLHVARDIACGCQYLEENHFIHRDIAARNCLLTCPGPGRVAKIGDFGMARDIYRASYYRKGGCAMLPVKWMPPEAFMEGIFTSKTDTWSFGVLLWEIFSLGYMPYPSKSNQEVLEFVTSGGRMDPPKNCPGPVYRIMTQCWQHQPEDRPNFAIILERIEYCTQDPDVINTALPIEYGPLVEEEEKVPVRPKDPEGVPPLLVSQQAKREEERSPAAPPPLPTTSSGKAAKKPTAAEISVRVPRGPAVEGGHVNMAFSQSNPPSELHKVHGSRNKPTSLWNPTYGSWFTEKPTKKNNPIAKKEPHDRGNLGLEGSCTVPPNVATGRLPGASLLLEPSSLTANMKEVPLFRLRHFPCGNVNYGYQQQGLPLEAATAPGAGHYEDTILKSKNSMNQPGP

Sequence | % activity [1] | % activity [2] | % activity [3] | % activity [4] | % activity [5] | % activity [6] | % activity [7] | % activity [8] | % activity [9] | % activity [10] | % activity [11] | % activity [12] | % activity [13] | % activity [14] | % activity [15]
FAKLAARLYRKALARQLGVAA [MMI-0300] | 19% | 97% | 69% | 91% | 25% | 84% | 48% | 94% | 110% | 82% | 128% | 97% | 48% |  | 
HRRIKAWLKKIKALARQLGVAA (Mammal) [MMI-0500] | 12% | 16% | 16% | 6% | 15% | 17% | 18% | 86% | 125% | 146% | 95% | 30% | 10% | 10% | 218%
KAFAKLAARLYRKALARQLGVAA [MMI-0400] | 16% |  | 84% | 235% | 22% | 18% | 44% | 89% |  | 100% | 118% | 98% | 37% | 0% | 31%
YARAAARQARAKALARQLGVAA [MMI-0100] | 118% | 98% |  |  | 53% |  |  | 92% |  |  | 159% |  | 87% | 73% | 87%
YARAAARQARAKALNRQLGVA (Mammal) [MMI-0200] | 95% | 108% |  |  | 74% | 99% | 98% | 98% | 100% |  |  | 98% | 98% | 208% | 118%
